Experimental data taken from patent publication US20110045489A1, “Polymerases for Incorporating Modified Nucleotides” (NEW ENGLAND BIOLABS, INC., priority 2008, published 2011).

B1: 9° N D141A/E143A/R406E/L408G: 9° N DNA polymerase mutant (protein, UniProt Q56366 1-775, looked up, variant D141A E143A R406E L408G)
DNA polymerase: MILDTDYITENGKPVIRVFKKENGEFKIEYDRTFEPYFYALLKDDSAIEDVKKVTAKRHGTVVKVKRAEKVQKKFLGRPIEVWKLYFNHPQDVPAIRDRIRAHPAVVDIYEYDIPFAKRYLIDKGLIPMEGDEELTMLAFAIATLYHEGEEFGTGPILMISYADGSEARVITWKKIDLPYVDVVSTEKEMIKRFLRVVREKDPDVLITYNGDNFDFAYLKKRCEELGIKFTLGRDGSEPKIQRMGDRFAVEVKGRIHFDLYPVIRRTINLPTYTLEAVYEAVFGKPKEKVYAEEIAQAWESGEGLERVARYSMEDAKVTYELGREFFPMEAQLSRLIGQSLWDVSRSSTGNLVEWFLLRKAYKRNELAPNKPDERELARRRGGYAGGYVKEPERGLWDNIVYLDFESGYPSIIITHNVSPDTLNREGCKEYDVAPEVGHKFCKDFPGFIPSLLGDLLEERQKIKRKMKATVDPLEKKLLDYRQRAIKILANSFYGYYGYAKARWYCKECAESVTAWGREYIEMVIRELEEKFGFKVLYADTDGLHATIPGADAETVKKKAKEFLKYINPKLPGLLELEYEGFYVRGFFVTKKKYAVIDEEGKITTRGLEIVRRDWSEIAKETQARVLEAILKHGDVEEAVRIVKEVTEKLSKYEVPPEKLVIHEQITRDLRDYKATGPHVAVAKRLAARGVKIRPGTVISYIVLKGSGRIGDRAIPADEFDPTKHRYDAEYYIENQVLPAVERILKAFGYRKEDLRYQKTKQVGLGAWLKVKGKK
B2: 9° N exo-P410V: 9° N DNA polymerase mutant (protein, UniProt Q56366 1-775, looked up, variant D141A E143A P410V)
DNA polymerase: MILDTDYITENGKPVIRVFKKENGEFKIEYDRTFEPYFYALLKDDSAIEDVKKVTAKRHGTVVKVKRAEKVQKKFLGRPIEVWKLYFNHPQDVPAIRDRIRAHPAVVDIYEYDIPFAKRYLIDKGLIPMEGDEELTMLAFAIATLYHEGEEFGTGPILMISYADGSEARVITWKKIDLPYVDVVSTEKEMIKRFLRVVREKDPDVLITYNGDNFDFAYLKKRCEELGIKFTLGRDGSEPKIQRMGDRFAVEVKGRIHFDLYPVIRRTINLPTYTLEAVYEAVFGKPKEKVYAEEIAQAWESGEGLERVARYSMEDAKVTYELGREFFPMEAQLSRLIGQSLWDVSRSSTGNLVEWFLLRKAYKRNELAPNKPDERELARRRGGYAGGYVKEPERGLWDNIVYLDFRSLYVSIIITHNVSPDTLNREGCKEYDVAPEVGHKFCKDFPGFIPSLLGDLLEERQKIKRKMKATVDPLEKKLLDYRQRAIKILANSFYGYYGYAKARWYCKECAESVTAWGREYIEMVIRELEEKFGFKVLYADTDGLHATIPGADAETVKKKAKEFLKYINPKLPGLLELEYEGFYVRGFFVTKKKYAVIDEEGKITTRGLEIVRRDWSEIAKETQARVLEAILKHGDVEEAVRIVKEVTEKLSKYEVPPEKLVIHEQITRDLRDYKATGPHVAVAKRLAARGVKIRPGTVISYIVLKGSGRIGDRAIPADEFDPTKHRYDAEYYIENQVLPAVERILKAFGYRKEDLRYQKTKQVGLGAWLKVKGKK
B3: 9° N D141A/E143A/Y409A/R406V: 9° N DNA polymerase mutant (protein, UniProt Q56366 1-775, looked up, variant D141A E143A Y409A R406V)
DNA polymerase: MILDTDYITENGKPVIRVFKKENGEFKIEYDRTFEPYFYALLKDDSAIEDVKKVTAKRHGTVVKVKRAEKVQKKFLGRPIEVWKLYFNHPQDVPAIRDRIRAHPAVVDIYEYDIPFAKRYLIDKGLIPMEGDEELTMLAFAIATLYHEGEEFGTGPILMISYADGSEARVITWKKIDLPYVDVVSTEKEMIKRFLRVVREKDPDVLITYNGDNFDFAYLKKRCEELGIKFTLGRDGSEPKIQRMGDRFAVEVKGRIHFDLYPVIRRTINLPTYTLEAVYEAVFGKPKEKVYAEEIAQAWESGEGLERVARYSMEDAKVTYELGREFFPMEAQLSRLIGQSLWDVSRSSTGNLVEWFLLRKAYKRNELAPNKPDERELARRRGGYAGGYVKEPERGLWDNIVYLDFVSLAPSIIITHNVSPDTLNREGCKEYDVAPEVGHKFCKDFPGFIPSLLGDLLEERQKIKRKMKATVDPLEKKLLDYRQRAIKILANSFYGYYGYAKARWYCKECAESVTAWGREYIEMVIRELEEKFGFKVLYADTDGLHATIPGADAETVKKKAKEFLKYINPKLPGLLELEYEGFYVRGFFVTKKKYAVIDEEGKITTRGLEIVRRDWSEIAKETQARVLEAILKHGDVEEAVRIVKEVTEKLSKYEVPPEKLVIHEQITRDLRDYKATGPHVAVAKRLAARGVKIRPGTVISYIVLKGSGRIGDRAIPADEFDPTKHRYDAEYYIENQVLPAVERILKAFGYRKEDLRYQKTKQVGLGAWLKVKGKK
B4: 9° N D141A/E143A/Y409A/R406S/L408R: 9° N DNA polymerase mutant (protein, UniProt Q56366 1-775, looked up, variant D141A E143A Y409A R406S L408R)
DNA polymerase: MILDTDYITENGKPVIRVFKKENGEFKIEYDRTFEPYFYALLKDDSAIEDVKKVTAKRHGTVVKVKRAEKVQKKFLGRPIEVWKLYFNHPQDVPAIRDRIRAHPAVVDIYEYDIPFAKRYLIDKGLIPMEGDEELTMLAFAIATLYHEGEEFGTGPILMISYADGSEARVITWKKIDLPYVDVVSTEKEMIKRFLRVVREKDPDVLITYNGDNFDFAYLKKRCEELGIKFTLGRDGSEPKIQRMGDRFAVEVKGRIHFDLYPVIRRTINLPTYTLEAVYEAVFGKPKEKVYAEEIAQAWESGEGLERVARYSMEDAKVTYELGREFFPMEAQLSRLIGQSLWDVSRSSTGNLVEWFLLRKAYKRNELAPNKPDERELARRRGGYAGGYVKEPERGLWDNIVYLDFSSRAPSIIITHNVSPDTLNREGCKEYDVAPEVGHKFCKDFPGFIPSLLGDLLEERQKIKRKMKATVDPLEKKLLDYRQRAIKILANSFYGYYGYAKARWYCKECAESVTAWGREYIEMVIRELEEKFGFKVLYADTDGLHATIPGADAETVKKKAKEFLKYINPKLPGLLELEYEGFYVRGFFVTKKKYAVIDEEGKITTRGLEIVRRDWSEIAKETQARVLEAILKHGDVEEAVRIVKEVTEKLSKYEVPPEKLVIHEQITRDLRDYKATGPHVAVAKRLAARGVKIRPGTVISYIVLKGSGRIGDRAIPADEFDPTKHRYDAEYYIENQVLPAVERILKAFGYRKEDLRYQKTKQVGLGAWLKVKGKK
B5: 9° N D141A/E143A/R406P/L408G: 9° N DNA polymerase mutant (protein, UniProt Q56366 1-775, looked up, variant D141A E143A R406P L408G)
DNA polymerase: MILDTDYITENGKPVIRVFKKENGEFKIEYDRTFEPYFYALLKDDSAIEDVKKVTAKRHGTVVKVKRAEKVQKKFLGRPIEVWKLYFNHPQDVPAIRDRIRAHPAVVDIYEYDIPFAKRYLIDKGLIPMEGDEELTMLAFAIATLYHEGEEFGTGPILMISYADGSEARVITWKKIDLPYVDVVSTEKEMIKRFLRVVREKDPDVLITYNGDNFDFAYLKKRCEELGIKFTLGRDGSEPKIQRMGDRFAVEVKGRIHFDLYPVIRRTINLPTYTLEAVYEAVFGKPKEKVYAEEIAQAWESGEGLERVARYSMEDAKVTYELGREFFPMEAQLSRLIGQSLWDVSRSSTGNLVEWFLLRKAYKRNELAPNKPDERELARRRGGYAGGYVKEPERGLWDNIVYLDFPSGYPSIIITHNVSPDTLNREGCKEYDVAPEVGHKFCKDFPGFIPSLLGDLLEERQKIKRKMKATVDPLEKKLLDYRQRAIKILANSFYGYYGYAKARWYCKECAESVTAWGREYIEMVIRELEEKFGFKVLYADTDGLHATIPGADAETVKKKAKEFLKYINPKLPGLLELEYEGFYVRGFFVTKKKYAVIDEEGKITTRGLEIVRRDWSEIAKETQARVLEAILKHGDVEEAVRIVKEVTEKLSKYEVPPEKLVIHEQITRDLRDYKATGPHVAVAKRLAARGVKIRPGTVISYIVLKGSGRIGDRAIPADEFDPTKHRYDAEYYIENQVLPAVERILKAFGYRKEDLRYQKTKQVGLGAWLKVKGKK
B6: 9° N D141A/E143A/Y409A/R406S/L408K: 9° N DNA polymerase mutant (protein, UniProt Q56366 1-775, looked up, variant D141A E143A Y409A R406S L408K)
DNA polymerase: MILDTDYITENGKPVIRVFKKENGEFKIEYDRTFEPYFYALLKDDSAIEDVKKVTAKRHGTVVKVKRAEKVQKKFLGRPIEVWKLYFNHPQDVPAIRDRIRAHPAVVDIYEYDIPFAKRYLIDKGLIPMEGDEELTMLAFAIATLYHEGEEFGTGPILMISYADGSEARVITWKKIDLPYVDVVSTEKEMIKRFLRVVREKDPDVLITYNGDNFDFAYLKKRCEELGIKFTLGRDGSEPKIQRMGDRFAVEVKGRIHFDLYPVIRRTINLPTYTLEAVYEAVFGKPKEKVYAEEIAQAWESGEGLERVARYSMEDAKVTYELGREFFPMEAQLSRLIGQSLWDVSRSSTGNLVEWFLLRKAYKRNELAPNKPDERELARRRGGYAGGYVKEPERGLWDNIVYLDFSSKAPSIIITHNVSPDTLNREGCKEYDVAPEVGHKFCKDFPGFIPSLLGDLLEERQKIKRKMKATVDPLEKKLLDYRQRAIKILANSFYGYYGYAKARWYCKECAESVTAWGREYIEMVIRELEEKFGFKVLYADTDGLHATIPGADAETVKKKAKEFLKYINPKLPGLLELEYEGFYVRGFFVTKKKYAVIDEEGKITTRGLEIVRRDWSEIAKETQARVLEAILKHGDVEEAVRIVKEVTEKLSKYEVPPEKLVIHEQITRDLRDYKATGPHVAVAKRLAARGVKIRPGTVISYIVLKGSGRIGDRAIPADEFDPTKHRYDAEYYIENQVLPAVERILKAFGYRKEDLRYQKTKQVGLGAWLKVKGKK

test system: modified nucleotide; assay: Screen of DNA polymerase mutants for modified nucleotide incorporation; assay type: biochemical
Excerpt: In order to determine the extent of 3′-modified nucleotide incorporation by archaeon DNA polymerases, the titration assay described by Gardner and Jack (2002) was used. In this assay, the efficiency of incorporation of chain terminators was judged by the size of the reaction products in a polymerization reaction. As the efficiency of chain-terminator incorporation increased, the average reaction product size decreased because polymerization was more often halted by terminator addition. By comparing the amount of terminator required to give the same spectrum of reaction products, the relative efficiency of incorporation of the test compounds with the different polymerases was determined.
A complex library of 9° N DNA polymerase mutants was screened for enhanced incorporation of 3′-azido-ddCTP. Several classes of 9° N DNA polymerase mutants were identified with enhanced terminator incorporation. 9° N exo-L408S/Y409A/P410V (Therminator III™, NEB, Inc., Ipswich, Mass.) was purified and characterized in more detail. 9° N DNA polymerase single mutants P410V, L408S, and Y409A and double mutants L408S/P410V, L408S/Y409A, and Y409A/P410V were also purified for comparison. Purification and characterization of DNA polymerase mutants was as described in Gardner and Jack, Nucleic Acids Res. 27:2545-2553 (1999).
A library of 9° N DNA polymerase mutants was constructed by PCR amplification of the polymerase genes using gene-specific primers or codon optimization and gene synthesis Czar et al. Trends Biotechnol 27(2): 63-72 (2009)). The ability to incorporate 3′-modified nucleotide terminators was evaluated by the titration assay for chain terminator incorporation efficiency as described by Gardner and Jack (2002).
Furthermore, the same assay was used to measure 3′-amino-ddCTP incorporation by 9° N exo-L408S/Y409A/P410V (FIG. 3) and to measure rates of incorporation (FIG. 4). Examples of mutants that increased modified nucleotide incorporation by at least two-fold were: […]

Increase of modified nucleotide incorporation, at least two-fold:
B1
B2
B3
B4
B5
B6
